Like-named read-outs stand apart in the source and are kept apart here.
Key:
[1] = biological target: T1, human TSLP (human, UniProt Q969D9 29-159); assay: cell-based or functional assay
[2] = biological target: T2, cynomolgus monkey TSLP (cynomolgus monkey, UniProt A0A7N9CAT7 29-159); assay: ELISA, plate coated with cynomolgus monkey TSLP, test antibodies as human IgG1
T2 construct: also called cynomolgus TSLP; recombinant cynomolgus monkey TSLP
Protocol: (§1) ELISA Screening: Monoclonal scFv antibodies were selected and subjected to ligand binding assays. The first assay was designed to identify scFv antibodies that bound human TSLP and/or cynomolgus TSLP. Briefly, a 96-well plate was coated with human TSLP or cynomolgus TSLP in PBS at 0.1 μg/well and left overnight at 4° C. Before loading the scFv antibodies, the plates were washed with TBST, blocked for 1-2 hours at 37° C. using 5% milk and washed again with TBST. Each scFv sample was first diluted to 40 μg/mL, and 150 μL was added to the first row of wells. The 40 μg/mL scFv samples were then serially diluted at a 1:3 ratio and added to the remaining wells. After incubating for an hour at 37° C., followed by washing with TBST for 6 times, 100 μl of the secondary antibody (HRP labeled mouse anti-flag (1:2500)) was added to each well. After incubation for an hour under 37° C., the plate was washed for 3 times using TBST. TMB was then added at 100 μL/well and incubated for 10-20 minutes at 37° C. 2 M H₂SO₄ was used to stop the reaction. The ELISA results (OD405) were then analyzed and the binding curves were generated by PRISM.

[3] = biological target: T3, TSLP-His (human, UniProt Q969D9 29-159, limits assumed); assay: HTRF competition: blocking of TSLP-his binding to HEK293-Flag-hTSLPR-IL7Ra cells, IgG1
T3 construct: also called his-tagged TSLP; not shown: His-tag
T3 sequence (Q969D9 29-159 R127A/R130S limits assumed): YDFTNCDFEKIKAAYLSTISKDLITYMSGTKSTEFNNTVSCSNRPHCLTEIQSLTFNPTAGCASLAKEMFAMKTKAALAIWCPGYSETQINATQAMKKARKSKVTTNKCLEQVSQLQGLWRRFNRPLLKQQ

[4] = biological target: T1, human TSLP; assay: cell-based or functional assay; remark: listed apart in the source
[5] = biological target: T1, human TSLP; assay: ELISA, plate coated with human TSLP, test antibodies as human IgG1
Protocol: as §1

[6] = biological target: T1, human TSLP; assay: cell-based or functional assay; remark: listed apart in the source
[7] = biological target: T1, human TSLP; assay: ELISA, plate coated with human TSLP, test antibodies as human IgG1; remark: listed apart in the source
Protocol: as §1

[8] = biological target: T2, cynomolgus monkey TSLP; assay: ELISA, plate coated with cynomolgus monkey TSLP, test antibodies as human IgG1; remark: listed apart in the source
Protocol: as §1

[9] = biological target: T1, human TSLP; assay: ELISA, plate coated with human TSLP, test antibodies as human IgG1; remark: listed apart in the source
Protocol: as §1

T2 sequence (A0A7N9CAT7 entry or part of it): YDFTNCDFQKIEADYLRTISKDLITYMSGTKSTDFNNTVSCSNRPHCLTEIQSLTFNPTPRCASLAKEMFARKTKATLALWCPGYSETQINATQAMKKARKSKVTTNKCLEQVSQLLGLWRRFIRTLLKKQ
T1 sequence (Q969D9 29-159 R127A/R130S limits assumed): as the sequence (Q969D9 29-159 R127A/R130S limits assumed) above

Binder | IC50, inhibition of TSLP induced proliferation of Ba/F3-TSLPR-IL7Ra cells (CellTiter-Glo) [1] | EC50 (read off the curve) [2] | IC50 [3] | IC50, inhibition of human TSLP-induced Stat5 activation (Stat5-luciferase reporter, Ba/F3 cells with hTSLPR and hIL7Ra) [4] | EC50 (read off the curve) [5] | IC50, inhibition of human TSLP-induced Stat5 activation (Stat5-luciferase reporter, Ba/F3 cells with hTSLPR and hIL7Ra) [6] | EC50 (read off the curve) [7] | EC50 (read off the curve) [8] | EC50 (read off the curve) [9]
TSLP-0101 (antibody, V domains shown) VH: QVQLQESGPGLVKPSETLSLTCAVSGYSISSGYGWSWIRQPPGKGLEWIGYISYYGSISYNPSLKSRVTISRDTSKNQFSLKLSSVTAADTAVYYCARTNLLYFDSWGQGTLVTVSS VL: not shown | – | – | – | – | – | 0.0092 µg/mL | ~0.03 µg/mL | ~0.7 µg/mL | –
TSLP-0106 (antibody, V domains shown) VH: QVQLQESGPGLVKPSETLSLTCTVSGYSISSGYGWSWIRQPPGKGLEWIGYISYYGSISYNPSLKSRVTISVDTSKNQFSLKLSSVTAADTAVYYCARTNLLYFDSWGQGTLVTVSS VL: EIVMTQSPATLSLSPGERATLSCRASQSVSNNLAWYQQKPGQAPRLLIYDASSRATGIPARFSGSGSGTDFTLTISSLEPEDFAVYYCQQYSDWPQYTFGQGTKVEIK | – | – | – | – | – | 0.0169 µg/mL | ~0.05 µg/mL | ~0.9 µg/mL | –
TSLP-0102 (antibody, V domains shown) VH: QVQLQESGPGLVKPSETLSLTCTVSGYSISSGYGWSWIRQPPGKGLEWIGYISYYGSISYNPSLKSRVTISRDTSKNQFSLKLSSVTAADTAVYYCARTNLLYFDSWGQGTLVTVSS VL: EIVMTQSPATLSLSPGERATLSCRASQSVSNNLAWYQQKPGQAPRLLIYDASSRATGIPARFSGSGSGTDFTLTISSLEPEDFAVYYCQQYSDWPQYTFGQGTKVEIK | – | – | – | – | – | 0.0114 µg/mL | ~0.04 µg/mL | ~0.7 µg/mL | –
TSLP-0104 (antibody, V domains shown) VH: QVQLQESGPGLVKPSETLSLTCAVSGYSISSGYGWSWIRQPPGKGLEWIGYISYYGSISYNPSLKSRVTISVDTSKNQFSLKLSSVTAADTAVYYCARTNLLYFDSWGQGTLVTVSS VL: EIVMTQSPATLSLSPGERATLSCRASQSVSNNLAWYQQKPGQAPRLLIYDASSRATGIPARFSGSGSGTDFTLTISSLEPEDFAVYYCQQYSDWPQYTFGQGTKVEIK | – | – | – | – | – | 0.0154 µg/mL | ~0.04 µg/mL | ~0.7 µg/mL | –
TSLP-0105 (antibody, V domains shown) VH: QVQLQESGPGLVKPSETLSLTCAVSGYSISSGYGWSWIRQPPGKGLEWIGYISYYGSISYNPSLKSRVTISVDTSKNQFSLKLSSVTAADTAVYYCARTNLLYFDSWGQGTLVTVSS VL: not shown | – | – | – | – | – | 0.0182 µg/mL | ~0.05 µg/mL | ~0.7 µg/mL | –
TSLP-0108 (antibody, V domains shown) VH: QVQLQESGPGLVKPSETLSLTCAVSGYSISSGYGWSWIRQPPGKGLEWIGYISYYGSTSYNPSLKSRVTISRDTSKNQFSLKLSSVTAADTAVYYCARTNLLYFDSWGQGTLVTVSS VL: EIVMTQSPATLSLSPGERATLSCRASQSVSNNLAWYQQKPGQAPRLLIYDASSRATGIPARFSGSGSGTDFTLTISSLEPEDFAVYYCQQYSDWPEYSFGQGTKVEIK | 0.0394 µg/mL | – | 0.158 µg/mL | 0.0108 µg/mL | – | – | – | – | ~0.06 µg/mL

Now from value to binder:

IC50, inhibition of TSLP induced proliferation of Ba/F3-TSLPR-IL7Ra cells (CellTiter-Glo) [1] | EC50 (read off the curve) [2] | IC50 [3] | IC50, inhibition of human TSLP-induced Stat5 activation (Stat5-luciferase reporter, Ba/F3 cells with hTSLPR and hIL7Ra) [4] | EC50 (read off the curve) [5] | IC50, inhibition of human TSLP-induced Stat5 activation (Stat5-luciferase reporter, Ba/F3 cells with hTSLPR and hIL7Ra) [6] | EC50 (read off the curve) [7] | EC50 (read off the curve) [8] | EC50 (read off the curve) [9] | Binder
0.0363 µg/mL | ~0.3 µg/mL | 0.383 µg/mL | 0.0215 µg/mL | ~0.1 µg/mL | – | – | – | – | TSLP-0203 (antibody, V domains shown) VH: QVQLVQSGAEVKKPGSSVKVSCKASGFTFGSYGINWVRQAPGQGLEWLGVIVPLVGVTIYAEKFQGRVTITADTSTSTAYMELSSLRSEDTAVYYCARGQEYFYWYFDLWGQGTLVTVSS VL: QSALTQPPSASGSPGQSVTISCTGTSSDIGGYDRVSWYQQHPGKAPKLMIYGVSKRPSGVPDRFSGSKSGNTASLTVSGLQAEDEADYYCSSYASGHTFGLFGGGTKLTVL
0.0422 µg/mL | ~0.2 µg/mL | 0.428 µg/mL | 0.0189 µg/mL | ~0.1 µg/mL | – | – | – | – | TSLP-0204 (antibody, V domains shown) VH: QVQLVQSGAEVKKPGSSVKVSCKASGFTFGSYGINWVRQAPGQGLEWLGVIVPLVGVTIYAEKFQGRVTITADTSTSTAYMELSSLRSEDTAVYYCARGQEYFYWYFDLWGQGTLVTVSS VL: QSALTQPPSASGSPGQSVTISCTGTSSDIGGYNRVSWYQQHPGKAPKLMIYEVNKRSSGVPDRFSGSKSGNTASLTVSGLQAEDEADYYCTSYAGTDTFVLFGGGTKLTVL
0.244 µg/mL | – | – | 0.0438 µg/mL | – | – | – | – | ~0.08 µg/mL | TSLP-0111 (antibody, V domains shown) VH: QVQLQESGPGLVKPSETLSLTCAVSGYSISSGYGWSWIRQPPGKGLEWIGYFSYYGSTSYNPSLKSRVTISRDTSKNQFSLKLSSVTAADTAVYYCARTNLLYFDSWGQGTLVTVSS VL: EIVMTQSPATLSLSPGERATLSCRASQSVSSNLAWYQQKPGQAPRLLIYDASSRATGIPARFSGSGSGTDFTLTISSLEPEDFAVYYCQQYSNWPQYSFGQGTKVEIK
0.0304 µg/mL | – | – | 0.0228 µg/mL | – | – | – | – | ~0.07 µg/mL | TSLP-0109 (antibody, V domains shown) VH: QVQLQESGPGLVKPSETLSLTCAVSGYSISSGYGWSWIRQPPGKGLEWIGYISYYGSTSYNPSLKSRVTISRDTSKNQFSLKLSSVTAADTAVYYCARTNLLYFESWGQGTLVTVSS VL: EIVMTQSPATLSLSPGERATLSCRASQGISSYLAWYQQKPGQAPRLLIYDASNLQSGIPARFSGSGSGTDFTLTISSLEPEDFAVYYCQQYSNWPQYSFGQGTKVEIK
0.129 µg/mL | – | – | 0.0245 µg/mL | – | – | – | – | ~0.08 µg/mL | TSLP-0110 (antibody, V domains shown) VH: QVQLQESGPGLVKPSETLSLTCAVSGYSISSGYGWSWIRQPPGKGLEWIGYISYYGSTSYNPSLKSRVTISRDTSKNQFSLKLSSVTAADTAVYYCARTNLLYFDSWGQGTLVTVSS VL: EIVMTQSPATLSLSPGERATLSCRASQSVSSYLAWYQQKPGQAPRLLIYDTSSRATGIPARFSGSGSGTDFTLTISSLEPEDFAVYYCQQYSNWPQYSFGQGTKVEIK
0.214 µg/mL | – | – | 0.0308 µg/mL | – | – | – | – | ~0.08 µg/mL | TSLP-0112 (antibody, V domains shown) VH: QVQLQESGPGLVKPSETLSLTCAVSGYSISSGYGWSWIRQPPGKGLEWIGYISYYGSTSYNPSLKSRVTISRDTSKNQFSLKLSSVTAADTAVYYCARTNLLYFDYWGQGTLVTVSS VL: EIVMTQSPATLSLSPGERATLSCRASQSVSSYLAWYQQKPGQAPRLLIYDASSRATGIPARFSGSGSGTDFTLTISSLEPEDFAVYYCQQYSDWPQYSFGQGTKVEIK
